In article PMC4703881:

Biological target: wild-type T7 DNA polymerase (gp5 with E. coli thioredoxin) (bacteriophage T7 | E. coli) (UniProt P00581)
Sequence (P00581 whole entry, chain 1 of 2): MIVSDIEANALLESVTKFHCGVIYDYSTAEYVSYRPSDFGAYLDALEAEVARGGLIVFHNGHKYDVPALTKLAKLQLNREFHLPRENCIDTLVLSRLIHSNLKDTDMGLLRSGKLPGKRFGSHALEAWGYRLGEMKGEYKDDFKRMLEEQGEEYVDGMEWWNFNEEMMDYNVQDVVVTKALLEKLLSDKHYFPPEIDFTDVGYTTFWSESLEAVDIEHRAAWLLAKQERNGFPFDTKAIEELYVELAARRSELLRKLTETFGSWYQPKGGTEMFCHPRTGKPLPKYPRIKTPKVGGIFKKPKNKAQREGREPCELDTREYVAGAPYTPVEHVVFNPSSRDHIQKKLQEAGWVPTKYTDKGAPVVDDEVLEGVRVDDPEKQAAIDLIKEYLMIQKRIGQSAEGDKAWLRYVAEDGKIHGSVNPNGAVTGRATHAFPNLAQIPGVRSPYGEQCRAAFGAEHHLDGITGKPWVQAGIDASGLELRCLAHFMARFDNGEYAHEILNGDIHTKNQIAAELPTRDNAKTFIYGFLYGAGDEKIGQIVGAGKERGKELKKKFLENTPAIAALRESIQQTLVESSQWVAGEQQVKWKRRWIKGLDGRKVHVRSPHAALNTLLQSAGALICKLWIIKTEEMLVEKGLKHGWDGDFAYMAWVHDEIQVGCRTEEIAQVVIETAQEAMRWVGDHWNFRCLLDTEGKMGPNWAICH
Sequence (P0AA25 whole entry, chain 2 of 2, further chain): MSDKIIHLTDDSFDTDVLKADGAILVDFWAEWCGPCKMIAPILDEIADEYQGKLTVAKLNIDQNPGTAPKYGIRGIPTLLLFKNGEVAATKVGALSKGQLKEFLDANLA

Chain of wild-type T7 helicase (gp4) (P03692 whole entry): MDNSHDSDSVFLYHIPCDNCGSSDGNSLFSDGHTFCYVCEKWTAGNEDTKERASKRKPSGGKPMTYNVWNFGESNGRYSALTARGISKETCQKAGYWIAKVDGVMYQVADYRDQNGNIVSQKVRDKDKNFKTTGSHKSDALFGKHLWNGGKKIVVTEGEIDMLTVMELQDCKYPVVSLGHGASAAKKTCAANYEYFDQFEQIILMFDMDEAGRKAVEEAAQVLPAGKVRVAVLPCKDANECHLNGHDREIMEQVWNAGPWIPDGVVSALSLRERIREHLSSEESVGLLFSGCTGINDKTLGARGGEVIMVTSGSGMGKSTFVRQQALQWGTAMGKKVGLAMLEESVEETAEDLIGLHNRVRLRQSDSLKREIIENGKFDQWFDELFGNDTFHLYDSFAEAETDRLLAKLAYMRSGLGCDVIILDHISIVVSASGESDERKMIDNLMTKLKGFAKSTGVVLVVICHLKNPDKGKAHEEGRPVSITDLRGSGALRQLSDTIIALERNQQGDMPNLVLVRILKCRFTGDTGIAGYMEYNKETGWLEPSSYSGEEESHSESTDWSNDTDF

fraction of single-molecule traces with continued leading-strand synthesis at high rate past a leading-strand CPD lesion, wt DNAP with wt helicase, 6 pN, 0.5 mM dNTP: 28 % of traces
Substance: wild-type T7 helicase (gp4) (from UniProt P03692 1-566) (enzyme)
